Consider 1 molecule from US20110135573A1, “METALLOPROTEINASE 9 AND METALLOPROTEINASE 2 BINDING PROTEINS” (DYAX CORP., priority 2009, published 2011).

In assay [1] the target is T1, Human MMP-9 catalytic domain (Homo sapiens, UniProt P14780).
T1 construct: Human MMP-9 catalytic domain (BIOMOL, SE-244); purchased BIOMOL SE-244
Briefly: Biacore 3000 binding to antibody-coated CM5 chip. The following applies: 25° C. How it is done: (§1) Experiments were performed at 25° C. with the help of a Biacore 3000 instrument. The MMP-9 binding protein (M0166F10) and the M0237-D02 antibody were coated to a CM5 chip either via standard amine coupling or using an anti-Fc antibody surface. Then either the active, human MMP-9 catalytic domain (BIOMOL, SE-244), the human pro-MMP-9 (R&D, 911-MP), the human TIMP-1 (R&D, 970-TM) or a h-MMP-9/h-TIMP-1 complex were flowed over the antibody surfaces, and binding was recorded.
For orientation: In SPR one partner is held on a chip, and binding of the other changes the refractive index at the surface.

Another assay concerns the target T2, human TIMP-1 (Homo sapiens, UniProt P01033).
T2 construct: purchased R&D Systems 970-TM
Briefly: Biacore 3000 binding to antibody-coated CM5 chip. The following applies: Direct capture; 25° C. How it is done:
as §1

Another assay deals with T3, human pro-MMP-9 (Homo sapiens, UniProt P14780).
T3 construct: the human pro-MMP-9 (R&D, 911-MP); purchased R&D Systems 911-MP
T3 sequence (P14780 20-707 limits assumed): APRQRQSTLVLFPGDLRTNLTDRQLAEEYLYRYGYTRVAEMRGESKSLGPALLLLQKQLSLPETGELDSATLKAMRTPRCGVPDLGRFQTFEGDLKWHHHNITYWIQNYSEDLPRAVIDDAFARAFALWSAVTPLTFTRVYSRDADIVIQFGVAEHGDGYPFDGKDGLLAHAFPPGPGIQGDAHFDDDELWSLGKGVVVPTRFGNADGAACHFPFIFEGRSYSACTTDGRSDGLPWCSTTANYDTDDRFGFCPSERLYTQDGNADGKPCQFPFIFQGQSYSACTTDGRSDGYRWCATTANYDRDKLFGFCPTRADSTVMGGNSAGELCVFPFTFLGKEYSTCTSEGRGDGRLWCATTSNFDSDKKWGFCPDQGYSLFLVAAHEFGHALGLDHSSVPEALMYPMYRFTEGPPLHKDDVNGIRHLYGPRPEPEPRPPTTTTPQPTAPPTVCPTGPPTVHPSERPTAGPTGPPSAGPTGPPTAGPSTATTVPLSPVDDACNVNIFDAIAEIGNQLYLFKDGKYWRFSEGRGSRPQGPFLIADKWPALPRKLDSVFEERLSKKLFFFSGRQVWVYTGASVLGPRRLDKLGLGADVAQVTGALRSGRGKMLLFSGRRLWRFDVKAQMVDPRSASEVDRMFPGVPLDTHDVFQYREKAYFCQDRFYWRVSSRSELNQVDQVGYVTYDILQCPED
Briefly: Biacore 3000 binding to antibody-coated CM5 chip. The following applies: Direct capture, 25° C. The protocol: as §1

Another assay has as its target MMP-9 (Homo sapiens, UniProt P14780). Briefly: Enzyme inhibition assay (single point inhibition, IC50/Ki,app), substrate M-2350. It counts as biochemical. Further details: Human MMP-9 catalytic domain (BIOMOL, SE-244); purchased BIOMOL SE-244. How it is done: 343 unique sFabs from the anti-MMP-9/-2 M237-D02 affinity maturation campaign were discovered by phage display, produced in small scale (6 mL cultures in deep 24-well plates) and screened to select inhibitors with sub-nanomolar potency against the human enzymes and at least single-digit nanomolar potency toward the mouse orthologues. […] Isolates which appeared potent against both human and mouse MMP-2 were then subjected to IC50 analysis against hMMP-9. Sub-nanomolar inhibitors of hMMP-9 were further tested by IC50 analysis against mMMP-9 and h/m MMP-2, if sufficient small-scale sFab material was available. Thirteen potential h/m MMP-9/-2 sFab inhibitors were then produced in medium scale (250 mL cultures in flasks) and retested for h/m MMP-9 and h/m MMP-2 inhibition. Five potential lead candidates were reformatted as IgGs and retested in enzyme inhibition assays.
Human MMP-9 (Biomol #SE-244), mouse MMP-9 (R&D Systems #909-MM-010), human MMP-2 (Biomol #SE-237) and mouse MMP-2 (R&D Systems #924-MP-010) were tested at final concentrations of 1 nM, 0.25-0.4 nM, 2.5 nM and 0.2 nM, respectively. Target enzymes were incubated with inhibitor for two hours at 30° C. in reaction buffer (50 mM Tris-HCl pH 7.5, 150 mM NaCl, 5 mM CaCl2, 0.05% Brij-35) in a total volume of 90 μL using a white 96 well plate (Costar). Reactions contained 5 μL of small-scale sFab stock solution (average concentration of 500 nM) for single point inhibition analysis or a concentration series of sFab/IgG for IC50 Ki,app determinations. […] Reactions were initiated by the addition of 10 μL of a 10× concentrated stock of substrate, Mca-Lys-Pro-Leu-Gly-Leu-Dap(Dnp)-Ala-Arg-NH2, (Bachem M-2350), at final concentration of 10 μM and monitored at 30° C. in a Molecular Devices' Gemini fluorescence plate reader. […] Kinetic data were acquired by the increase in fluorescence, and initial rates for each condition were plotted against the total inhibitor concentration. […]

In the next assay the test system is MCF-7 tumor sections. Briefly: Film in situ zymography (FIZ) on frozen tumor sections. It counts as cell-based, human. The following applies: 500 nM; 37° C. overnight. How it is done:
(§2) PBS-control treated tumors were screened with M0237-D02 for gelatinase expression using the FIZ approach. The tumors tested were Colo205 and MCF-7. Briefly, frozen slides of tumpor sections were dried at room temperature and 200 μl of in situ Zymo buffer (TCNB)+20 μg/ml of gelatin quenched substrate from molecular probes was added. The slides were incubate at 37° C. overnight in the presence of M0237-D02 at 500 nM or GM6001 used as a positive control at 100 μM. The substrate was washed in MilliQ (3 times) and the mounted slides were treated with anti-Fade+Dapi mounting medium.

In the next assay the test system is Colo205 tumor sections. The description is as above. The following applies: 500 nM; 37° C. overnight. Type of assay: cell-based, human. The protocol: as §2
For another assay, the target named is h-MMP-9/h-TIMP-1 complex (Homo sapiens, UniProt P14780). Description: Biacore 3000 binding to antibody-coated CM5 chip. The following applies: 25° C. How it is done: The non competitive inhibition model implies that the ternary complex enzyme-substrate-inhibitor can form. It is however possible that this complex cannot form with bigger substrates, in which case the antibody would behave as a competitive inhibitor. In order to address this issue, the ability of M0237-D02 antibody to bind to the h-MMP-9 when the enzyme is complexed to its natural inhibitor h-TIMP-1 was determined. The reasoning is that if the antibody cannot bind to the h-MMP-9/h-TIMP-1 complex, it would probably behave as a competitive inhibitor of this enzyme in the presence of bigger substrates.
h-MMP-9/h-TIMP-1 complex, sequence (P14780 107-444 limits assumed): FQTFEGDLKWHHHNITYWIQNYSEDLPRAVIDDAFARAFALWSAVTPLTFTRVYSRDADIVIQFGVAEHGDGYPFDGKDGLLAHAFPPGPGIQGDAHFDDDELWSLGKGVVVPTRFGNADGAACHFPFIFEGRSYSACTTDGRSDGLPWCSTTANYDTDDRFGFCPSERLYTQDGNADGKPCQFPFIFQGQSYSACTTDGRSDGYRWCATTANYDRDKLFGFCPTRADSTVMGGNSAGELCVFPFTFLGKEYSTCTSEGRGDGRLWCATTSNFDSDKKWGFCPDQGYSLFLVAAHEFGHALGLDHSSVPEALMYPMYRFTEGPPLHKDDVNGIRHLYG
h-MMP-9/h-TIMP-1 complex, sequence (P01033 24-207 partner): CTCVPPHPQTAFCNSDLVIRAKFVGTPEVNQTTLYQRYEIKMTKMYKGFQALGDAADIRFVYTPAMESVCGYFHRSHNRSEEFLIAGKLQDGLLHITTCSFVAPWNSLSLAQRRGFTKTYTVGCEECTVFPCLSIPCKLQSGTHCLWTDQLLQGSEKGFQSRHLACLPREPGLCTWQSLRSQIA
as §1

T1 sequence (P14780 107-444 limits assumed): as the sequence (P14780 107-444 limits assumed) above
MMP-9, sequence (P14780 107-444 limits assumed): as above
T2 sequence (P01033 24-207): as the sequence (P01033 24-207 partner) above

B1: M0237-D02: MMP-9/-2 dual reactive antibody inhibitor (parental); sFab and hIgG1 (antibody, V domains shown)
VH: EVQLLESGGGLVQPGGSLRLSCAASGFTFSQYPMWWVRQAPGKGLEWVSYIVPSGGRTYYADSVKGRFTISRDNSKNTLYLQMNSLRAEDTAVYYCAKDRAYGDYVGWNGFDYWGQGTLVTVSS
VL: DIQMTQSPATLSLSPGERATLSCRASQSISSFLAWYQQKPGQAPRLLIYDASYRATGIPARFSGSGSGTDFTLTISSLEPEDYAVYYCQQRGNWPITFGQGTRLEIK
For the molecule B1, the “binding of Cat-huMMP-9” value in assay [1] (Direct capture (amine coupling)) is listed as “No”; in assay [1] (Fc capture (anti-Fc antibody surface)), “could be observed”; in assay [1] (Fc capture (anti-Fc antibody surface), listed as 539A-M0237D02), “Yes”. For the same molecule, in the assay with human TIMP-1, the “binding of huTIMP-1” value is “No”. The “binding of Pro-huMMP-9” value with human pro-MMP-9 (listed as 539A-M0237D02) is listed as “No”; with human pro-MMP-9 (listed as M237-D02), “observed neither”. Moreover, the “affinity for hMMP-9 (in words)” value with MMP-9 is reported as “high affinity”. In addition, the “inhibition of gelatinolytic activity” value with MCF-7 tumor sections and in the assay on Colo205 tumor sections was “complete inhibition” each time. Moreover, the “binding of huTIMP-1/cat-huMMP-9” value is “No” with h-MMP-9/h-TIMP-1 complex (Direct capture); “no binding was observed” in the assay with h-MMP-9/h-TIMP-1 complex (Fc capture); “No” with h-MMP-9/h-TIMP-1 complex (Fc capture, listed as 539A-M0237D02).
